Data reported in patent US20250366499A1, “Flavin-Containing Monoamine Oxidase MAO6sh Capable of Degrading Biogenic Amines and Application Thereof” (Jiangnan University, priority 2024, published 2025).
Values joined by “and” are separate entries in the source; they are usually repeats but may differ in a detail not shown here. Identical values can stand only once.

Columns and labels:
[1] = Degradation in commercially available Huangjiu, cadaverine; assay type: biochemical; details: Huangjiu 18% vol, enzyme 200 μg/ml added 1:1, about 28° C., 48 h
Protocol: (§1) The content of biogenic amines was detected by high-performance liquid chromatography (HPLC).
(§2) The recombinant monoamine oxidase MAO6^sh prepared in Example 3 was subjected to ultrafiltration and concentration to adjust the protein concentration to 200 μg/ml, and then added to the Huangjiu in a ratio of 1:1 for reacting at a room temperature of about 28° C. for 48 h. The control group was commercially available Huangjiu (18% vol) without enzymes, and the total content of biogenic amines in the control group was 136.2 mg·L^−1.

[2] = Degradation in commercially available Huangjiu, tyramine; assay type: biochemical; details: Huangjiu 18% vol, enzyme 200 μg/ml added 1:1, about 28° C., 48 h
Protocol: as §1, §2

[3] = Degradation in commercially available Huangjiu, phenylethylamine; assay type: biochemical; details: Huangjiu 18% vol, enzyme 200 μg/ml added 1:1, about 28° C., 48 h
Protocol: as §1, §2

[4] = Degradation in commercially available Huangjiu, spermidine; assay type: biochemical; details: Huangjiu 18% vol, enzyme 200 μg/ml added 1:1, about 28° C., 48 h
Protocol: as §1, §2

[5] = Enzyme activity measurement (peroxidase-coupled, A510), substrate tryptamine; assay type: biochemical
Protocol: (§3) Enzyme activity measurement: The activity of a biogenic amine oxidase was measured by an indirect measurement method of […]. The amine oxidase acts on biogenic amines to degrade the biogenic amines into corresponding aldehydes and hydrogen peroxide. Under the presence of peroxidase, hydrogen peroxide reacts with 4-aminoantipyrine and 2,4,6-tribromo-3-hydroxybenzoic acid to generate a quinone dye. The product has a maximum absorption value at 510 nm, and the magnitude of the activity of the amine oxidase was linearly related to the color intensity of the product within a certain range, so that the activity of the amine oxidase can be measured by measuring the change in A510.
(§4) The reaction was carried out in a 96-well plate. The reaction system included 20 μl of enzyme solution (80 ug·mL^−1) and 100 μl of prepared solution (including 200 mmol·L^−1 potassium phosphate buffer with a pH of 7.6, 1.5 mmol·L^−1 4-aminoantipyrine, and 1 mmol·L^−1 2,4,6-tribromo-3-hydroxybenzoic acid). To initiate the reaction, 20 μL of biogenic amine solution (10 mmol·L^−1) and 70 µL of peroxidase (1.4 mg·mL^−1) were added, the absorbance was measured at 510 nm, the reaction temperature was 37° C., and the reaction time was 10 min. The change in absorbance of 0.01 per minute was defined as one enzyme activity unit (U).
(§5) Definition of specific activity of monoamine oxidase (U/mg): The enzyme activity per milligram of protein.
(§6) The catalytic ability of the monoamine oxidase MAO6^sh before and after purification was measured respectively using a single biogenic amine as a substrate. Systems containing putrescine, tyramine, histamine, cadaverine, phenylethylamine, tryptamine, spermine or spermidine with a concentration of 10 mmol/L were prepared respectively, the pure enzyme in Example 3 was added to the reaction system after adjusting the protein concentration (80 ug/mL, 20 uL) for reacting for 30 min at 37° C., and the results were shown in
(§7) After the enzyme solution purified in Example 3 was respectively incubated for 30 min in water baths at 15° C., 30° C., 35° C., 40° C., 45° C., 50° C., 55° C. and 60° C., the enzyme activity was measured according to the standard enzyme reaction system to determine the stable temperature range thereof, and the results were shown in FIG. 6. […] When the incubation temperature was 50° C., the residual enzyme activity for putrescine was 36.66%, the residual enzyme activity for cadaverine was 30.55%, and the residual enzyme activity for tryptamine was 26.34%.
(§8) The reaction system was the same as that of Example 5, except that ethanol with different concentrations (0-20% vol) was added respectively. […] When the concentration of ethanol was about 15 vol %, the relative enzyme activities of the monoamine oxidase MAO6^sh for putrescine, tryptamine and cadaverine were 9.57%, 11.21% and 13.67% respectively (FIG. 9).

[6] = Application in commercially available low-salt soy sauce; assay type: biochemical; details: enzyme 200 ug/ml, 25° C., 24-48 h
Protocol: The recombinant monoamine oxidase MAO6^sh prepared in Example 3 was subjected to ultrafiltration and concentration to adjust the protein concentration to 200 ug/ml, and then added to the commercially available low-salt soy sauce for standing at a room temperature (25° C.) for 24-48 h.

[7] = Degradation in commercially available Huangjiu, spermine; assay type: biochemical; details: Huangjiu 18% vol, enzyme 200 μg/ml added 1:1, about 28° C., 48 h
Protocol: as §1, §2

[8] = Degradation in commercially available Huangjiu, histamine; assay type: biochemical; details: Huangjiu 18% vol, enzyme 200 μg/ml added 1:1, about 28° C., 48 h
Protocol: as §1, §2

[9] = Application in table vinegar; assay type: biochemical; details: enzyme 200 μg/ml, 25° C., 24-48 h
Protocol: The recombinant monoamine oxidase MAO6^sh prepared in Example 3 was subjected to ultrafiltration and concentration to adjust the protein concentration to 200 μg/ml, and then added to the commercially available table vinegar for standing at a room temperature (25° C.) for 24-48 h.

[10] = Enzyme activity measurement (peroxidase-coupled, A510), substrate putrescine; assay type: biochemical
Protocol: as §3, §4, §5, §6, §7
The reaction system was the same as that of Example 5, except that the pH of the reaction system was respectively adjusted to 3.0-9.0, the enzyme activity of the recombinant enzyme MAO6^sh under different pH reaction conditions was measured, the relative enzyme activity at each temperature was calculated respectively using a single biogenic amine as a substrate at the highest enzyme activity of 100%, and the results were shown in FIG. 7. When putrescine was used as a substrate, the optimal pH for the MAO6^sh was about 5.0-6.0. When the pH was within the range of 3.0-5.0, the enzyme activity […] rapidly with the increase of the pH. However, under alkaline conditions, the tolerance was stronger than the acid tolerance.
as §8

[11] = Degradation in commercially available Huangjiu, total biogenic amines; assay type: biochemical; details: Huangjiu 18% vol (control 136.2 mg/L total), enzyme 200 μg/ml added 1:1, about 28° C., 48 h
Protocol: as §1, §2

[12] = Application in fermented sausage; assay type: biochemical; details: enzyme 200 μg/ml added to raw material, versus sausage without enzyme
Protocol: 65-80% of lean meat and 20-35% of fat meat were taken by mass and cleaned, and bones, tendons, myolemma, lymph nodes, blood vessels, lesions and injury sites were removed. The fat meat and the lean meat were separated and cut into 4-5 cm meat pieces. The lean meat and about 5-8% of flake ice were placed in a chopper and chopped for 1-3 min. Based on the mass of pork, […] of sodium nitrite, 2-3% of table salt, 0.2-0.3% of compound phosphate, and 0.05-0.06% of sodium ascorbate were added. Spices, pepper, garlic, chili, and nutmeg were 0.2-0.3% of the raw meat. The recombinant monoamine oxidase MAO6^sh prepared in Example 3 was subjected to ultrafiltration and concentration to adjust the protein concentration to 200 μg/ml, and then added to the sausage raw material for chopping for 1-2 min, and then, the fat meat and about 5-8% of flake ice were added for chopping for 4-6 min. The sausage was pickled and then poured into the sausage casing. The sausage poured into the sausage casing was pickled at 4° C. for 12 h, then heated to 30° C., fermented until the pH decreased to about 5.1, and matured at 14-16° C. for 1-10 d.

[13] = Degradation in commercially available Huangjiu, tryptamine; assay type: biochemical; details: Huangjiu 18% vol, enzyme 200 μg/ml added 1:1, about 28° C., 48 h
Protocol: as §1, §2

[14] = assay type: biochemical
Protocol: as §3
The reaction was carried out in a 96-well plate. […] To initiate the reaction, 20 μL of biogenic amine solution (10 mmol·L^−1) and 70 µL of peroxidase (1.4 mg·mL^−1) were added, the absorbance was measured at 510 nm, the reaction temperature was 37° C., and the reaction time was 10 min. The change in absorbance of 0.01 per minute was defined as one enzyme activity unit (U).
The catalytic ability of the monoamine oxidase MAO6^sh before and after purification was measured respectively using a single biogenic amine as a substrate. […]

[15] = Enzyme activity measurement (peroxidase-coupled, A510), substrate cadaverine; assay type: biochemical
Protocol: as §3, §4, §5, §6, §7, §8

[16] = Degradation in commercially available Huangjiu, putrescine; assay type: biochemical; details: Huangjiu 18% vol, enzyme 200 μg/ml added 1:1, about 28° C., 48 h
Protocol: as §1, §2

[17] = crude enzyme solution, induction at 16° C.
[18] = pure enzyme 80 ug/mL, 10 mmol/L substrate, 37° C., 30 min

B1: MAO6^sh: recombinant flavin-containing monoamine oxidase from Saccharopolyspora hirsuta, amino acid sequence SEQ ID NO. 1, expressed in E. coli BL21/pET28a-MAO6^sh (protein, listed as Saccharopolyspora hirsuta)
chain: MDSYDVVVIGAGFAGLVAARELALRGHAVVVLEARDRIGGRTWTDERLGRRLEMGGTWVHWLQPHVWSEITRYDQRIEPSPSSQAVHWVAGGSAHRGSPEEFDALISPGMDQLARDSRAWFPLPYEPLHRADLDQVDHLSVADYFAGLDLNPVEREVTEGVWAEHFNGPAAVSGYTQAMRWCAAASGNWQLLHQATSGYRLTGGTAALAGAIAADGGAELHLGSVVASVSQDSGGATVSTTDGTSVRARRVICTLPLNVLGTVDFQPALPATKLAASAERTASQGLKTWIRVRGEVAPFTAYAPDSHDLTFVRPEYTVEGDTLLVAFGTRAADLAPDDVDGVARALRVWRDDLEVLEVSGHDWMTDDFSRETWPMQRPEQLTRYLAALQEPHGVVRFAGSDLATGWAGFIDGAVESGLRASRAVQDALRGPRG
- Degradation rate, Cadaverine [1]: 43.78%
- Degradation rate, Tyramine [2]: 19.31%
- Degradation rate, Phenylethylamine [3]: 5.78%
- Degradation rate, Spermidine [4]: 8.51%
- residual enzyme activity for tryptamine ([5]; 30 min incubation at 50° C.): 26.34%
- specific enzyme activity for tryptamine [5, 17]: 13.94 U/mg
- relative enzyme activity for tryptamine ([5]; ethanol about 15 vol %): 11.21%
- relative enzyme activity for tryptamine ([5]; ethanol lower than 10% vol): 30.27%
- specific enzyme activity for tryptamine [5, 18]: 149.16 U/mg
- reduction of content of biogenic amines [6]: effectively reduce the content of biogenic amines
- Degradation rate, Spermine [7]: 7.75%
- Degradation rate, Histamine [8]: 21.44%
- reduction of content of biogenic amines [9]: effectively reduce the content of biogenic amines
- residual enzyme activity for putrescine ([10]; 30 min incubation at 50° C.): 36.66%
- specific enzyme activity for putrescine [10, 17]: 15.66 U/mg
- relative enzyme activity for putrescine ([10]; ethanol about 15 vol %): 9.57%
- relative enzyme activity for putrescine ([10]; ethanol lower than 10% vol): 29.44%
- specific enzyme activity for putrescine [10, 18]: 161.59 U/mg
- optimal pH ([10]; putrescine as substrate, reaction pH 3.0-9.0): 5.0-6.0
- degradation rate for total biogenic amines [11]: 25.56%
- reduction of content of biogenic amines [12]: effectively reduce the content of biogenic amines
- Degradation rate, Tryptamine [13]: 54.07% and 54.06%
- Degradation rate, Tryptamine ([13]; listed as recombinant enzyme): 54.07%
- residual enzyme activity ([14]; 30 min incubation, incubation temperature exceeds 45° C.): about 30%
- optimal temperature ([14]; most suitable substrate, reaction temperatures 25-60° C.): 45-50 °C
- residual enzyme activity for cadaverine ([15]; 30 min incubation at 50° C.): 30.55%
- specific enzyme activity for cadaverine [15, 17]: 14.70 U/mg
- relative enzyme activity for cadaverine ([15]; ethanol about 15 vol %): 13.67%
- relative enzyme activity for cadaverine ([15]; ethanol lower than 10% vol): 35.78%
- specific enzyme activity for cadaverine [15, 18]: 146.05 U/mg
- Degradation rate, Putrescine [16]: 33.76%
